PMC7556753, “A double role of the Gal80 N terminus in activation of transcription by Gal4p” (Life Science Alliance, 2020)

What was measured:
[1] = target: T1, KlGal1p with N-terminal His6-tag (NHKlGal1p) (Kluyveromyces lactis) (UniProt P09608); experiment: galactokinase inhibition titration; 10 nM NHGal1p with increasing concentrations of NHKlGal80p or NHKlGal80-KR56Ap; ADP production coupled to pyruvate kinase and lactate dehydrogenase (NADH consumption); apparent KD from the decline in KlGal1p activity
T1 sequence: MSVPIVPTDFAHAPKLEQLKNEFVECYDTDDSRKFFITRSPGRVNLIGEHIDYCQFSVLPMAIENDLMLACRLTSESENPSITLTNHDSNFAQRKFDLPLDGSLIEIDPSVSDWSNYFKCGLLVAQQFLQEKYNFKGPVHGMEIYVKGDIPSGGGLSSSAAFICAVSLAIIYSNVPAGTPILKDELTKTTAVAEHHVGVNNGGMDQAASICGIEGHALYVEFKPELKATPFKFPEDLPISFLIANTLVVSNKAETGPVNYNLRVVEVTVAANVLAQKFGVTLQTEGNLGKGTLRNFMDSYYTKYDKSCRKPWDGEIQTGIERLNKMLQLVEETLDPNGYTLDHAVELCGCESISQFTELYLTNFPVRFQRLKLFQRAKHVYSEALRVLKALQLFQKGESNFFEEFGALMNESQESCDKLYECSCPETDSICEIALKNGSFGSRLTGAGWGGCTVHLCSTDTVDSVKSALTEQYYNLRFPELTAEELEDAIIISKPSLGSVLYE

[2] = target: T1, KlGal1p with N-terminal His6-tag (NHKlGal1p) (Kluyveromyces lactis)
[3] = target: T2, KlGal1p with N-terminal His6-tag (NHKlGal1p) (Kluyveromyces lactis, UniProt P09608 1-503); experiment: galactokinase inhibition titration; 10 nM NHGal1p with increasing concentrations of NHKlGal80p or NHKlGal80-KR56Ap; ADP production coupled to pyruvate kinase and lactate dehydrogenase (NADH consumption); apparent KD from the decline in KlGal1p activity; conditions: both partners purified
T2 construct: KlGal1p, galactokinase (Gal1 protein) of Kluyveromyces lactis; also called NHGal1p; source: E. coli Rosetta (DE3)-pLys, from pETNHG1, purified as described in Anders et al, 2006b; not shown: His6, N-terminal, kept
T2 sequence (looked up): T1 sequence

Molecule: KlGal80-K5A/R6Ap with N-terminal His6-tag (NHKlGal80-K5A/R6Ap) (from UniProt Q06433 1-457) (natural protein)
- Kd [1]: 3.1 µM
- relative galactokinase activity of KlGal1p with KlGal80-K5A/R6Ap (in % of the activity in the absence of KlGal80p or its peptide) [2]: 93.6%

Molecule: MNNNKRSKLSTVPSSRP [peptide KlN17G80 (N-terminal 17 residues of KlGal80p)]
- relative galactokinase activity of KlGal1p with the KlN17G80 peptide alone (in % of the activity in the absence of KlGal80p or its peptide) [2]: 99.4%

B1: KlGal80p with N-terminal His6-tag (NHKlGal80p) (natural protein, Kluyveromyces lactis)
chain: MNNNKRSKLSTVPSSRPIRVGFVGLTSGKSWVAKTHFLAIQQLSSQFQIVALYNPTLKSSLQTIEQLQLKHATGFDSLESFAQYKDIDMIVVSVKVPEHYEVVKNILEHSSQNLNLRYLYVEWALAASVQQAEELYSISQQRANLQTIICLQGRKSPYIVRAKELISEGCIGDINSIEISGNGGWYGYERPMRSPEYLYDIESGVNLISNSFGHTIDVLQYITGSYFQKINAMISNNIPTQFLLDENGKRTKETISKTCPDHLLFQGILENGKVPVSCSFKGGTPVKKLTKNLVIDIHGTKGDLKIEGDAGFVEISNLVLYFYGIKNGNGSSNGTDNNGAAAIKDKEKVTKSPSPSTGTSEEEQTMEVFHLRNYNSVVGNILRIYESIADYHFLGKPESKSSRGPDDLFASTKFDKQGFRFEGFPTFKDAIILHRLIDAVFRSDKEEKTLDVSKIMI
notes: KlGal80p, Gal80 protein of Kluyveromyces lactis, wild type; 457 residues by the printed fragment aa 40-457; also called KlGal80p wild-type; source: E. coli Rosetta (DE3)-pLys, from pETNHG80, purified as described in Anders et al, 2006b; not shown: His6, N-terminal, kept
- Kd [3]: 81 nM
